Assay results: publication PMC11661312, “The identification of XPR1 as a voltage- and phosphate-activated phosphate-permeable ion channel” (Research Square, 2024)

Target: the molecule itself
Assay: cryo-EM structure; purified hXPR1 at 10 to 20 mg/mL in GDN/LMNG/CHS detergent mixture; apo: 20 mM Tris pH 7.4, 150 mM NaCl (C1 symmetry); also with 25 mM sodium phosphate, 150 mM NaCl, 1 mM phytic acid (InsP6) pH 7.4 (C2 symmetry imposed)

B1: human Xenotropic and Polytropic retrovirus Receptor 1 (hXPR1) (natural protein, UniProt Q9UBH6 1-696, looked up)
chain: MKFAEHLSAHITPEWRKQYIQYEAFKDMLYSAQDQAPSVEVTDEDTVKRYFAKFEEKFFQTCEKELAKINTFYSEKLAEAQRRFATLQNELQSSLDAQKESTGVTTLRQRRKPVFHLSHEERVQHRNIKDLKLAFSEFYLSLILLQNYQNLNFTGFRKILKKHDKILETSRGADWRVAHVEVAPFYTCKKINQLISETEAVVTNELEDGDRQKAMKRLRVPPLGAAQPAPAWTTFRVGLFCGIFIVLNITLVLAAVFKLETDRSIWPLIRIYRGGFLLIEFLFLLGINTYGWRQAGVNHVLIFELNPRSNLSHQHLFEIAGFLGILWCLSLLACFFAPISVIPTYVYPLALYGFMVFFLINPTKTFYYKSRFWLLKLLFRVFTAPFHKVGFADFWLADQLNSLSVILMDLEYMICFYSLELKWDESKGLLPNNSEESGICHKYTYGVRAIVQCIPAWLRFIQCLRRYRDTKRAFPHLVNAGKYSTTFFMVTFAALYSTHKERGHSDTMVFFYLWIVFYIISSCYTLIWDLKMDWGLFDKNAGENTFLREEIVYPQKAYYYCAIIEDVILRFAWTIQISITSTTLLPHSGDIIATVFAPLEVFRRFVWNFFRLENEHLNNCGEFRAVRDISVAPLNADDQTLLEQMMDQDDGVRNRQKNRSWKYNQSISLRRPRLASQSKARDTKVLIEDTDDEANT
notes: Xenotropic and Polytropic retrovirus Receptor 1 (XPR1), human, Uniprot Q9UBH6, full length; cDNA synthesized with a C-terminal Strep-tag II; Homodimer in the detergent mixture (GDN/LMNG/CHS) by cryo-EM; also called SLC53a1; apo-hXPR1
stoichiometry N: 2
